Measured values from patent US20240254245A1 (JIANGSU HENGRUI PHARMACEUTICALS, published 2024).

Assays:
[1] = biological target: T1, human NGF protein (Sino biological, 11050-HNAC) (human, UniProt P01138 122-241); experiment: SPR (Biacore), antibody captured on Protein A chip, antigen in flow, 1:1 fit
T1 construct: also called Human (monkey) NGF
Procedure: Reaction signals were detected in real time by using Biacore, and binding and dissociation curves were obtained. After dissociation was complete in each cycle, the biochip was washed and regenerated with a glycine-hydrochloric acid regeneration solution (GE, BR-1003-54) having a pH of 1.5. Fitting was performed on the experimental data using BIAevaluation version 4.1 software with a 1:1 model, and affinity values were obtained.

[2] = biological target: T1, human NGF protein (Sino biological, …); experiment: cell-based or functional assay
[3] = biological target: T1, human NGF protein (Sino biological, …); experiment: cell-based or functional assay; remark: listed apart in the source
[4] = biological target: T1, human NGF protein (Sino biological, …); experiment: blocking ELISA: antibody titrated with fixed biotin-human NGF, on coated human TrkA
Procedure: The plate was incubated at 37° C. for 1.5 h. After the incubation was complete, the plate was washed 3 times with PBST. Streptavidin-HRP (Invitrogen, 434323, diluted at 1:4000) was added at 100 μL/well, and the plate was incubated at 37° C. for 1 h. The supernatant was removed. After the plate was washed 3 times with PBST, TMB chromogenic substrate (KPL, 5120-0077) was added at 100 μL/well, and the plate was incubated at room temperature for 10 to 15 min. […] The absorbance values at 450 nm were taken using a microplate reader.

[5] = biological target: T1, human NGF protein (Sino biological, …); experiment: ELISA on coated antigen (1 ug/mL), anti-human Fc-HRP
Procedure: (§1) The antigen was diluted to 1 μg/mL with a pH 7.4 PBS buffer (BasalMedia, B320) and added to a 96-well microplate (Coming, 9018) at 100 μL/well, and the plate was incubated overnight at 4° C. After the liquid was discarded, a 5% skim milk (BD, 232100) blocking solution diluted with PBS was added at 300 μL/well, and the plate was incubated at 37° C. for 2 h for blocking. After the blocking was complete, the blocking solution was discarded, and the plate was washed 3 times with a PBST buffer (pH 7.4 PBS containing 0.1% tween-20). Then a bispecific antibody diluted with a sample diluent (pH 7.4 containing 1% BSA) to different concentrations was added at 100 μL/well, and the plate was incubated in a 37° C. incubator for 1 h. After the incubation was complete, the plate was washed 3 times with PBST. An HRP-labeled anti-human Fc secondary antibody (Abcam, ab97225) diluted with the sample diluent was added at 100 μL/well, and the plate was incubated at 37° C. for 1 h. After the plate was washed 3 times with PBST, TMB chromogenic substrate (KPL, 5120-0077) was added at 100 μL/well, and the plate was incubated at room temperature for 10 to 15 min. 50 μL of 1 M H₂SO₄ was added to each well to stop the reactions. The absorbance values at 450 nm were taken using a microplate reader, and the EC50 values for binding of the bispecific antibody to the antigens were calculated.

[6] = biological target: T2, murine RANKL (R&D Systems, 462-TR/CF) (murine, UniProt O35235 72-316, limits assumed); experiment: as above
T2 construct: Bought protein
T2 sequence (looked up): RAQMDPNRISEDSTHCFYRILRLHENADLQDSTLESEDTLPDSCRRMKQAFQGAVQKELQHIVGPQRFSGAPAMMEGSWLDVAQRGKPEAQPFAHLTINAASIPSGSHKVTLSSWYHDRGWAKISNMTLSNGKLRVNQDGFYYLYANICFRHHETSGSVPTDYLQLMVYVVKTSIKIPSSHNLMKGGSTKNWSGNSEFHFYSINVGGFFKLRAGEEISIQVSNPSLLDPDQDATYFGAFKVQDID
Procedure: as §1

[7] = biological target: T3, human RANKL protein (Sino Biological, 11682-HNCH) (human, UniProt O14788 136-317, limits assumed); experiment: as above
T3 construct: Bought protein
T3 sequence (looked up): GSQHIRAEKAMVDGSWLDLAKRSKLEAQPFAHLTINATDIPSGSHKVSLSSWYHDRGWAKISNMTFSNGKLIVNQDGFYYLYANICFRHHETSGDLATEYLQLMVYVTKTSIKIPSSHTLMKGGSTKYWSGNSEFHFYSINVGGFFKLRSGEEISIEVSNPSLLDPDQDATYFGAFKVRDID
Procedure: as §1

[8] = biological target: T4, murine NGF (Sino Biological, 50385-MNAC) (murine, UniProt P01139 122-241); experiment: as above
T4 construct: Bought protein
T4 sequence (P01139 122-241 limits assumed): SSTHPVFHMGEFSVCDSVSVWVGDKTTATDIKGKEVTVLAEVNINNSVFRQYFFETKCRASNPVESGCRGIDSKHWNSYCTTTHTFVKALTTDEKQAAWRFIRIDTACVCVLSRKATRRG
Procedure: as §1

T1 sequence (P01138 122-241 limits assumed): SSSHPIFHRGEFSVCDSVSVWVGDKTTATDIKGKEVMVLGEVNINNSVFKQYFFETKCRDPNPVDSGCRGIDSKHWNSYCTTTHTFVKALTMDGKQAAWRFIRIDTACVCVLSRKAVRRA

B1: Tanezumab (antibody, human IgG2, kappa, V domains shown)
VH: QVQLQESGPGLVKPSETLSLTCTVSGFSLIGYDLNWIRQPPGKGLEWIGIIWGDGTTDYNSAVKSRVTISKDTSKNQFSLKLSSVTAADTAVYYCARGGYWYATSYYFDYWGQGTLVTVSS
VL: DIQMTQSPSSLSASVGDRVTITCRASQSISNNLNWYQQKPGKAPKLLIYYTSRFHSGVPSRFSGSGSGTDFTFTISSLQPEDIATYYCQQEHTLPYTFGQGTKLEIKR
notes: Control antibody; also called control anti-NGF antibody
Kd [1]: 0.142 nM
koff [1]: 0.000184 s⁻¹
kon [1]: 1.29e+06 M⁻¹ s⁻¹
TF-1 cell proliferation-inhibiting activity (TF-1 cells + human NGF, Cell-titer Glo) IC50 [2]: 0.759 nM
TF-1 cell proliferation-inhibiting activity, fold relative to bispecific antibody 1 [3]: ~4.2 times
IC50 [4]: 3.66 nM
EC50 [5]: 2.27 nM
binding result [6]: no binding
binding result [7]: no binding
EC50 [8]: 1.15 nM
